Test results as given in patent US20240034807A1.

B1: Clone #12 VH domain (protein)
VH: EVQLVETGGDLAQPGESLRLSCVASGFTFSSSWMTWIRQAPGKGLEWVSSLSGRSEKTFYADSVKGRFTVSRDNAKNTLYLQMDSLRPEDTATYYCASGWALVWGQGTLVTVSS
B2: Clone #5 VH domain (protein)
VH: EVQLVESGGGVVQPGRSLRLSCAASGLTFSSYAMHWVRQAPGKGLEWIGTIRYDGNTYYNPSLKSLVTISRDDSTNTLYLQMNSLRAEDTATYYCARRRYYDSSGYRGAAFDIWGQGTLVTVSS
B3: Clone #9 VH domain (protein)
VH: EVQLVESGGGVVQPGRSLRLSCAASGFTFSSYAMHWVRQAPGKGLEWVSGISYNGDHTYYADSVKGRSTVSRDNAKNTLYLQMDSLRPEDTAMYYCTRNYFFDYWGQGTLVTVSS
B4: Clone #1 VH domain (protein)
VH: EVQLVESGGGVVQPGRSLRLSCAASGFTFSSYAMHWVRQAPGKALEWIGSISYSGSTYYNPSLKSRVTVSRDNAKNTLYLQMDSLRAEDTAMYYCAKYYCSGGTCYYFDYWGQGTLVTVSS
B5: Clone #11 VH domain (protein)
VH: EVQLVESGGGVVQPGRSLRLSCAASGFTFSSYAMHWVRQAPGKGLEWVSGITRSGGATFYAGSVKGRFTISRDDSTNTLYLQMNSLRAEDTAVYYCSRDPRRVDYWGQGTLVTVSS
B6: Clone #4 VH domain (protein)
VH: EVQLVESGGGVVQPGRSLRLSCAASGFTFSSYAMHWVRQAPGKGLEWVSSISGNSLYKYYADSVKGRFTISRDDSTNTLYLQMNSLRAEDTATYYCTRHWAVGNWGQGTLVTVSS
B7: Clone #6 VH domain (protein)
VH: QVQLQQWGAGLLKPSETLSLTCAVYGGSFSGYYWSWIRQPPGKGLEWIGEINHSGSTNYNPSLKSRVTISVDTSKNQFSLKLSSVTAADTATYYCARSYRTVTYYKAYFQHWGQGTLVTVSS
B8: Clone #10 VH domain (protein)
VH: EVQLVESGGGVVQPGRSLRLSCAASGFTFSSYAMHWVRQAPGKGLEWIGSIRHDGNTYYNPSLKSRVTVSRDNAKNTLYLQMDSLRAEDTAMYYCAKYGCSSISCSFDYWGQGTLVTVSS
B9: Clone #7 VH domain (protein)
VH: EVQLVESGGGVVQPGRSLRLSCAASGFTFSSYAMHWVRQAPGKGLEWIGTIRYDGNTYYNPSLKSLVTISRDDSTNTLYLQMNSLRAEDTALYYCAKYGCSSTSCSFDYWGQGTLVTVSS
B10: Clone #8 VH domain (protein)
VH: EVQLVESGGGVVQPGRSLRLSCAASGFTFSSYAMHWVRQAPGKGLEWIGSIRHDGNTYYNPSLKSRVSVSRDNAKNTLYLQMDSLRAEDTAMYYCAKYGCSSISCSFDYWGQGTLVTVSS
B11: Clone #3 VH domain (protein)
VH: KVQLQQWGAGLLKPSETLSLTCAVYGGSFSGYYWSWIRQPPGKGLEWIGEINHSGSTNYNPSLKSRVTISVDTSKNQFSLKLSSVTAADTALYYCARTYRPHSYYYYGMDVWGQGTTVTVSS
B12: Clone #2 VH domain (protein)
VH: EVQLVESGGGVVQPGRSLRLSCAASGFTFSSYAMHWVRQAPGKGLEWIGYIYTSGSTNYNPSLKSRVTISRDDSTNTLYLQMNSLRAEDTATYYCARTPRGRDSSGYYQSPHAFDIWGQGTLVTVSS

Each binder was assayed against human mesothelin polypeptide (human) (UniProt Q13421) (assay: ELISA and SPR (Blitz) on a human mesothelin polypeptide).

Question: With B1 as the binder, how does the EC50 read?
Answer: The EC50 was 1.3 nM.

Question: With B2 as the binder, how does the EC50 read?
Answer: Its EC50 is 298 nM.

Question: For B3, which EC50 is on record?
Answer: The EC50 was 944 nM.

Question: B4 was tested. Which EC50 did it give?
Answer: Its EC50 is 1000 nM.

Question: Which EC50 does the source give for B5 here?
Answer: Its EC50 is 98 nM.

Question: Which EC50 does the source give for B6 here?
Answer: Its EC50 is 1.7 nM.

Question: With B7 as the binder, how does the EC50 read?
Answer: The EC50 was 1000 nM.

Question: How did the EC50 turn out when B8 was run?
Answer: The EC50 was 107 nM.

Question: With B9 as the binder, how does the EC50 read?
Answer: The EC50 was 16.4 nM.

Question: With B10 as the binder, how does the EC50 read?
Answer: Its EC50 is 6.5 nM.

Question: For B11, which EC50 is on record?
Answer: Its EC50 is 38 nM.

Question: How did the EC50 turn out when B12 was run?
Answer: Its EC50 is 1.6 nM.
